Reference: patent US8492329B2, “Bioactive peptides and methods of using same” (Compugen Ltd., priority 2007, dated 2013)
No end group written: not given here.

How the values were obtained:
LGR7 (RXFP1) = target: T1, LGR7 (RXFP1) (Homo sapiens, UniProt Q9HBX9); assay: pCRE-β-gal reporter assay in Forskolin-treated CHO-K1 cells transiently transfected with LGR7; type: cell-based; parameters: expressed in transfected cells; host or cells: CHO-K1 (transient); details: 5 uM Forskolin, FIG. 7A-B
T1 sequence (Q9HBX9 1-757): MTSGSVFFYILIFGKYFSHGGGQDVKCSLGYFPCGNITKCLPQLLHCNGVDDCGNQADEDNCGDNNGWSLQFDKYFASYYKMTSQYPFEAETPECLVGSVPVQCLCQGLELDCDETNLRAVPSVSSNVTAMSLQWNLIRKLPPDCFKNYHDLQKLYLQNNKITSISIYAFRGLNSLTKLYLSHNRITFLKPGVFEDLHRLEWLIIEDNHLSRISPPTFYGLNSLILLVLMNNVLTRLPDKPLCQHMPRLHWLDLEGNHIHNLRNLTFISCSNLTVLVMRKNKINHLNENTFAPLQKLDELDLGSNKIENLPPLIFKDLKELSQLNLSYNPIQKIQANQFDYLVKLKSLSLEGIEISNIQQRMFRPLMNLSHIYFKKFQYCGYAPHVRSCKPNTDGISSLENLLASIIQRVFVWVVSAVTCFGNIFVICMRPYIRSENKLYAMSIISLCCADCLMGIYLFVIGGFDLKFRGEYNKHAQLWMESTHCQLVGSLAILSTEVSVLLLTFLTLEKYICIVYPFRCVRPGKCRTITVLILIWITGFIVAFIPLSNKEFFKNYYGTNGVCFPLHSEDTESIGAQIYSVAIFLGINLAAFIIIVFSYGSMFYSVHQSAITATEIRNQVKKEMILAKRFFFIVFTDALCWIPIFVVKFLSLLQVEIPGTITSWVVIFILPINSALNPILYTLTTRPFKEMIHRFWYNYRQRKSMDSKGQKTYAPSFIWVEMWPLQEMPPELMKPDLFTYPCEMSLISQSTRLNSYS
Protocol: The ability of P74C13V (P74) (SEQ ID NO: 10) and P59C13V (P59) and P59C13V-Amide (P59-Amide) (SEQ ID NO: 6 and 5 respectively) to activate LGR7 (RXFP1) and LGR8 (RXFP2) was further tested by testing the ability of these peptides to influence cAMP activity induced by 5 μM Forskolin in CHO-K1 cells transiently transfected with LGR7/pCRE-β-gal or LGR8/pCRE-β-gal as compared to H2 relaxin and INSL3 respectively.
LGR7 transfected CHO-K1 cells were treated with 5 uM of Forskolin to stimulate cAMP. The cells were then challenged with increasing doses of H2 Relaxin (as positive control), P74C13V (P74) (SEQ ID NO: 10), P59C13V with (P59-Amide) and without (P59) amide and P59S-Amide (P59S) (SEQ ID NO: 5, 6 and 1, respectively). […] The results are presented as a percentage of Forskolin activity at increasing concentrations of each peptide (represented in log [M]). The baseline for the experiment was the activity of Forskolin alone (100%). Each point represents three unrelated repeats for each experiment together with their standard error bars.

LGR8 (RXFP2) = LGR8 (RXFP2) (Homo sapiens, UniProt Q8WXD0); assay: cAMP accumulation (Hit Hunter cAMP kit) in CHO-K1 cells transiently transfected with LGR8; type: cell-based; parameters: expressed in transfected cells; host or cells: CHO-K1 (transient); details: for cAMP inhibition (Gi) effect: 1 uM, LGR8 CHO-K1 cells pre-treated with 10 uM Forskolin, FIG. 1; for change in cAMP, dose response, higher concentrations: concentrations higher than 100 nM (up to 10 uM); for change in cAMP, dose response, higher concentrations / change in cAMP, dose response, lower concentrations: 20 uM Forskolin, FIG. 2; for change in cAMP, dose response, lower concentrations: concentrations lower than 100 nM
Protocol: The ability of Peptides to affect cAMP concentration was examined in CHO-K1 cells transiently transfected with LGR7 (RXFP1) or LGR8 (RXFP2). The experiment measured cAMP concentration in response to the addition of the peptides.
LGR7 (RXFP1) or LGR8 (RXFP2) were transiently transfected into CHO-K1 cells as follows: Cells (12 million) were plated into T75 flasks on the day preceding transfection. Cells were transfected with a GPCR DNA and Gα16 using a lipid technique according to the manufacturer's recommendation. Cells were transfected for 5 hours, then re-plated into 96-well dishes (60,000 cells per well) and grown overnight. Transfected cells were plated into 24 wells of a 96-well plate. Cells were pre-treated with 0.5 mM IBMX (stimulation buffer) for 10 min at 37° C., then stimulated with either a positive control (Relaxin 2) or a candidate peptide (for Gs functional examination), followed by stimulation or a preincubation with 10 μM forskolin (for Gi functional examination). Following a 20 minutes stimulation by incubation with 1 μM of either positive control or the tested peptides, either with or without forskolin, intracellular cAMP was assayed using the Hit Hunter cAMP kit (DiscoveRx Corporation) according to the manufacturer's recommended protocol. Data was converted to nmol of cAMP by running a standard cAMP curve.
Relaxin was used as a positive control. cAMP level was elevated by pre-treatment with forskolin.
The transfected CHO-K1 cells were treated with 10 uM of Forskolin (Applied cell sciences (ACS)) for 10 minutes and then challenged with 1 uM of H2 Relaxin (ACS) (as a positive control), 1 uM of Peptide P59C13V (P59) (SEQ ID NO: 6), and Peptide P74C13V (P74) (SEQ ID NO: 10).
A dose response effect of P59C13V (P59) and P74C13V (P74) on CHO-K1 cells transiently transfected with LGR8 (RXFP2) was further examined (Method as above). CHO-K1 cells transiently transfected with LGR8 (RXFP2) were treated with 20 uM of Forskolin for 10 minutes and then challenged with either INSL3 (as a positive control), P59C13V (SEQ ID NO: 6) or P74C13V (P74) (SEQ ID NO: 10) at increasing concentrations from 1 nM to 10 uM.

LGR8 (RXFP2), sequence (Q8WXD0 whole entry): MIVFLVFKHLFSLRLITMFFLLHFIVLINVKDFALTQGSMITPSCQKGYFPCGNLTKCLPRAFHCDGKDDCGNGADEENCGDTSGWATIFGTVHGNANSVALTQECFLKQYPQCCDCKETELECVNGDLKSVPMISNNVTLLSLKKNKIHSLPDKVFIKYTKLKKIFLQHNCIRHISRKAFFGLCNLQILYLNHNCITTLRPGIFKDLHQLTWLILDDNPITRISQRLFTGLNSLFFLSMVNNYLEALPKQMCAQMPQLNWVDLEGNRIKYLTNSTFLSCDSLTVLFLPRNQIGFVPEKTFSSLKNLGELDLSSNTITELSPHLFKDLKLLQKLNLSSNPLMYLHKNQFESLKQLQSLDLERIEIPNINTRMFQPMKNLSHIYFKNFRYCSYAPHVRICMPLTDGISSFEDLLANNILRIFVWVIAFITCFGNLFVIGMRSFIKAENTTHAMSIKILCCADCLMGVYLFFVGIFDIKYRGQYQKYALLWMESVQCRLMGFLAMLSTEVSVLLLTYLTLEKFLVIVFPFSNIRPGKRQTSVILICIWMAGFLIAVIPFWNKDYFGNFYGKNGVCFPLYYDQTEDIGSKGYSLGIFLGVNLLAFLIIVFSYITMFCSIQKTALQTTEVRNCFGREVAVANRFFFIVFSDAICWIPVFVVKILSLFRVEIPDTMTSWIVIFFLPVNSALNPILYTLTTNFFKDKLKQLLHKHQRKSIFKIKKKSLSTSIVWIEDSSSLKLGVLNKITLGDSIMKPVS

CRE activation pattern relative to Forskolin (LGR7 (RXFP1)) | cAMP inhibition (Gi) effect (LGR8 (RXFP2)) | change in cAMP, dose response, higher concentrations (LGR8 (RXFP2)) | change in cAMP, dose response, lower concentrations (LGR8 (RXFP2)) | Substance
dual activation pattern effect | clear cAMP inhibition (Gi) effect | slight increase (Gs effect) | slight decrease in cAMP | GQKGQVGPPGAAVRRAYAAFSV [Peptide P59C13V]
slight activation pattern | – | – | – | GQKGQVGPPGAAVRRAYAAFSV-Amide (GQKGQVGPPGAAVRRAYAAFSV-NH2) [P59C13V-Amide]
bell-shaped activation pattern | clear cAMP inhibition (Gi) effect | no effect | slight increase in cAMP | GQKGQVGPPGAAVRRAYAAFSVGRRAYAAFSV-OH [Peptide P74C13V]

Substance | CRE activation pattern relative to Forskolin (LGR7 (RXFP1)) | cAMP inhibition (Gi) effect (LGR8 (RXFP2)) | change in cAMP, dose response, higher concentrations (LGR8 (RXFP2)) | change in cAMP, dose response, lower concentrations (LGR8 (RXFP2))
H2 Relaxin: H2 Relaxin (ACS), positive control, known ligand of LGR7 (RXFP1) [reference compound] | increased activation at higher concentrations | affected only the LGR7 (RXFP1) receptor | – | –
